The values below come from patent publication US20230080534A1, “SEMG2 ANTIBODY AND USE THEREOF” (SHANGHAI BIOTROY BIOTECHNIQUE CO., LTD., priority 2020, published 2023).

Sequences and labels used below:
B1: H88-96: fully human antibody from phage library against SEMG2(497-509), VH SEQ ID NO:54, VL SEQ ID NO:57 (antibody, V domains shown)
VH: QVQLLESGGGLVQPGGSLRLSCSASGFTFSSYAMHWVRQAPGKGLEYVSAISSNGGSTYYADSVKGRFTISRDNSKNTLYLQMSSLRAEDTAVYYCVIEGGSTTGTTSGAFDIWGQGTMVTVSS
VL: DIQMIQSPPSVSASVGDTVTIACRANQGIDSWLAWYQQKPGRAPKLLIYSASRLQSGVPSRFSGGGSGTDFALTISNLQPEDFATYYCQQALSLPITFGQGTRLEIK
modifications: UNSURE (1)..(124) VH; UNSURE (1)..(107) VL
B2: MM08: mouse monoclonal antibody against SEMG2(497-509), mIgG1 kappa, VH SEQ ID NO:38, VL SEQ ID NO:45 (antibody, V domains shown)
VH: QVQLQQPGAELVRPGASVKLSCKSSDYTFTRYWMNWVKQRPGQGLEWIGMIDPSDSETHHNQMFKDKATLTVDKSSSTAYMQLSSLTSEDSAVYFCARYLGGKEGSFDYWGQGTTLTVSS
VL: DIVLTQSPSSLAVSAGERVTMSCKSSQSLFNSRTRKNYLAWYQQKPGQSPKLLLYWASTRESGVPDRFTGSGSGTDFTLTISSVKTEDLAVYYCKQSYELPWTFGGGTKLEMKRA
modifications: UNSURE (1)..(120) VH; UNSURE (1)..(115) VL
B3: MM14: mouse monoclonal antibody against SEMG2(497-509), mIgG2b kappa, VH SEQ ID NO:40, VL SEQ ID NO:47 (antibody, V domains shown)
VH: QVQLKESGPGLVAPSQSLSITCTVSGFSLTSYAVSWVRQPPGKGLEWLGIIWGDGSTNYHSALISRLSISKDNSKSQVFLKLNSLQTDDTATYYCAKQERFSDGYYDGFAYWGQGTLVTVSA
VL: QIVLTQSPAIMSASPGEKVTITCSASSSVSYMHWFQQKPGTSPKLWIYSTSNLASGVPARFSGSGSGTSYSLTISRMEAEDAATYYCQQRSSYPFTFGSGTKLEIKRA
modifications: UNSURE (1)..(122) VH; UNSURE (1)..(108) VL
B4: MM07: mouse monoclonal antibody against SEMG2(497-509), mIgG2b kappa, VH SEQ ID NO:37, VL SEQ ID NO:44 (antibody, V domains shown)
VH: MDWLWTLLFLMAAAQSIQAQIQLVQSGPELKKPGETVRISCKASGYTLTTAGMQWVQKIPGKGLKWIGWINTHSGVAEFAEDFKGRFAFSLETSANTAYLQIRNLKNEDTATYFCARLGLLGYWGQGTTLTVSS
VL: MVSSAQFLVFLLFWIPASRGDILLTQSPAILSVSPGERVSFSCRASQSIGTTIHWYQQRTNGSPRLLIKYASESISGIPSRFSGSGSGTDFTLSINSVESEDIADYYCQQSNSWPWTFGGGTKLEIKRA
modifications: UNSURE (1)..(134) VH; UNSURE (1)..(129) VL

The target in one assay is T1, binding between SEMG2 and CD27 (Homo sapiens, UniProt Q02383).
T1 sequence (Q02383 24-582): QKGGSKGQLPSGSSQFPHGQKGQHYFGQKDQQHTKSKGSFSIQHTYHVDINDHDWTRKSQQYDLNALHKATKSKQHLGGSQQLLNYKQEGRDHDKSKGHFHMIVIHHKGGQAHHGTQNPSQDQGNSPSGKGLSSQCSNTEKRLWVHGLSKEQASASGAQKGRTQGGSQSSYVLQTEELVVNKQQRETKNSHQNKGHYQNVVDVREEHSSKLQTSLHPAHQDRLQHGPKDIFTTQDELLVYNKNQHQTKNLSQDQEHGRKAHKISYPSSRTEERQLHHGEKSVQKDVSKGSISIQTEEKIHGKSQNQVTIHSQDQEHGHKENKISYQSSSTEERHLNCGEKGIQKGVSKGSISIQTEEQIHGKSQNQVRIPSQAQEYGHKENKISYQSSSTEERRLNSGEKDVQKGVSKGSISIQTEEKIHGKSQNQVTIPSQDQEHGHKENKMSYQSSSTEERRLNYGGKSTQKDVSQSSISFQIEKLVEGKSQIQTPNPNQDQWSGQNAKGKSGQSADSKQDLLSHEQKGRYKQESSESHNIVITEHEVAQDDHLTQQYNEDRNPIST
The assay is described as follows: Antibody blocking ELISA of SEMG2 binding to CD27-Fc. Particulars: antibody 10 μg/mL. From the text:
Because SEMG2 (497-509) sequence fragment is the key epitope of SEMG2 binding to CD27, and has a relatively short sequence, so SEMG2 (497-509) was used as an immunogen to prepare antibodies, which is theoretically easier to obtain functional antibody molecules with the function of blocking the binding between SEMG2 and CD27 than using full-length SEMG2 to prepare antibodies. For direct comparison, the differences in effective concentration of producing antibody by the two methods were verified using ELISA in the examples. Antibodies produced with SEMG2 (497-509) as immunogen and antibodies produced with full-length SEMG2 were added into the enzyme-linked immunosorbent assay (ELISA) reaction system at different concentrations (10^-2, 10^-1, 10^0, 10^1, 10^2, 10^3, 10^4 μg/mL), and the ELISA binding values were measured. The specific steps of enzyme-linked immunosorbent assay are as follows: (1) Dissolve SEMG2 protein antigen with 50 mM carbonate coating buffer (pH 9.6) to make the antigen concentration 10 μg/mL, and add into 96-well ELISA plate (purchased from Corning) at 100 μL/well, place at 4° C. overnight. (2) After discarding the coating solution on the next day, wash with PBST for three times, add 150 μL of 1% BSA to each well, and block for 2 hours at 37° C. […] (4) After washing for 5 times with PBST, add 100 of diluted HRP-labeled anti-human Fe secondary antibody, and incubate at 37° C. for 1 hour. (5) After washing with PBST for 5 times, 20 min after developing with chromogenic agent, the A450 absorption value was read using the microplate reader.
The SEMG2 (497-509) sequence was used to synthesize a polypeptide and coupled to a VLP carrier for immunization; HEK293 cells were used to express the full-length SEMG2 protein, and the purity was tested to reach 92%, and the binding activity of SEMG2 protein to CD27 was verified by ELISA. The protein and polypeptide antigens were used to immunize 10 mice respectively, and multiple immunizations were performed to enhance the effect: (1) The first immunization, 50 μg/mice of antigen, multiple subcutaneous injections together with Freund's complete adjuvant, with an interval of 3 weeks; (2) the second immunization; the same dosage and route as above, with incomplete Freund's adjuvant, and with an interval of 3 weeks; (3) the third immunization, the same dosage as above, without adjuvant, intraperitoneal injection with an interval of 3 weeks; (4) the booster immunization, the dose is 50 μg, intraperitoneal injection. 3 days after the last injection, blood was collected to measure its titer and the immune effect, and mice with higher titers were selected for hybridoma fusion screening. After subcloning, the binding of the monoclonal antibodies to the target antigens was detected by ELISA, and the function of different monoclonal antibodies in blocking the binding between SEMG2 and CD27 was measured by ELISA.
First, SEMG2(497-509) epitope-specific antibodies (for example, MM02, MM05) were compared with other epitope-specific antibodies (for example, HPA042767) for their function in blocking binding between SEMG2 and CD27 at different concentration ranges. […] The blocking function of different antibodies (irrelative mouse IgG, MM02, MM05, HPA042767) on binding between SEMG2 and CD27 was analyzed by the ELISA experiment as described in Example 11.
Further, the effects of different antibodies on the binding between SEMG2 and CD27 were compared under the condition of the same antibody concentration. In the ELISA, the same concentration (10 μg/mL) of antibody was used, and the strength of the binding between SEMG2 and CD27 was measured. […]
For orientation: ELISA stands for enzyme-linked immunosorbent assay.
As to B1, the “effect on the binding between SEMG2 and CD27” value (“effect” below) is “inhibited the binding”.

Consider B2, for which the “effect” value is reported as “significantly reduced the binding”.

With B3, the “effect” value is on record as “significantly reduced the binding”.

Take B4: the “effect” value is “significantly reduced the binding”.

The test system of another assay is LOVO human colorectal cancer cells. Kind of assay: Tumor cell killing by activated PBMC, caspase-3/7 apoptosis. Format: cell-based. Particulars: SEMG2-positive, co-culture with activated PBMC 10:1. The procedure: (§1) To test the above hypothesis, the effects of different epitope-specific antibodies on tumor cell killing by activated PBMC were compared. Specifically, A375 human melanoma and LOVO human colorectal cancer cells highly expressing SEMG2 were seeded in 96-well plate. Human peripheral blood mononuclear cells (PBMC; #70025, Stem Cell) were activated with 100 ng/mL of CD3 antibody, 100 ng/mL, of CD28 antibody, and 1.0 ng/mL of IL2 (#317303; #302913; #589102, BioLegend), respectively, and co-cultured with the above tumor cells at a ratio of 10:1 in presence of fluorescent caspase-3/7 substrate (#4440, Essen Bioscience). After 1.0 hours, cells were observed under fluorescence microscope.
(§2) To verify the above hypothesis, tumor cells with high SEMG2 expression (A375, LOVO) and SEMG2-negative tumor cells (DLD1, NCM460 and NCI-H1975) were selected. Different antibodies (irrelevant mouse IgG antibodies, MM02 or MM05 antibodies) were added during the PBMC killing experiments for the tumor cells.
(§3) To verify the effect of the human antibodies on the function of activated PBMC on tumor cell killing, A375 and LOVO cells were co-cultured with activated PBMC, and H88-93, H88-96, or H88-67 antibody was added at the same time, and the apoptosis ratio of tumor cells were detected.
Turning to B1, the “apoptosis tumor cell ratio / killing by activated PBMC” value (shortened to “apoptosis tumor cell ratio / killing”) is “significantly promote the killing”.

For B2, the “apoptosis tumor cell ratio / killing” value is “significantly increased”.

Regarding B3, the “apoptosis tumor cell ratio / killing” value is given as “significantly increased”.

Take B4: the “apoptosis tumor cell ratio / killing” value was “significantly increased”.

For the next assay, the system named is A375 human melanoma cells. The assay is described as above. Particulars: A375, SEMG2-positive, co-culture with activated PBMC 10:1. Format: cell-based. The procedure:
as §1, §2, §3
Regarding B1, the “apoptosis tumor cell ratio / killing” value is listed as “significantly promote the killing”.

With B2, the “apoptosis tumor cell ratio / killing” value was “significantly increased”.

With B3, the “apoptosis tumor cell ratio / killing” value is listed as “significantly increased”.

In the case of B4, the “apoptosis tumor cell ratio / killing” value is given as “significantly increased”.

The target in another assay is T2, SEMG2(497-509) fragment (Homo sapiens, UniProt Q02383).
T2 construct: SEMG2(497-509) fragment and SEMG2(563-574) fragment were immobilized on the ELISA plate; made in house; host or cells: chemical synthesis
The assay is described as follows: ELISA binding of antibodies to SEMG2(497-509) epitope.
Conditions: not given
Here is the method:
Specifically, SEMG2 full-length protein (1-582), SEMG2(354-403) fragment, SEMG2(442-453) fragment, SEMG2(497-509) fragment and SEMG2(563-574) fragment were immobilized on the ELISA plate, and the same concentration of antibodies (MM02, MM05, MM07, MM08, MM13, MM14, HPA042767 and HPA042835) were added. Anti-mouse or anti-rabbit secondary antibodies were then used to detect the corresponding bound antibodies. MM02, MM05, MM07, MM08, MM13, and MM14 all bound to SEMG2(497509) epitope, HPA042767 bound to SEMG2 (354-403) epitope, and HPA042835 bound to […], while none of the antibodies bound to SEMG2 (442-453) control fragment.
Specifically, the preparation of polypeptide antigens and the screening of human natural antibody library were firstly performed. The SEMG2(497-509) polypeptide was synthesized and coupled to BSA and KLH, respectively, and screened in a fully human phage display antibody library. ELISA was used to select clones that bind to antigenic epitopes for preliminary screening. Different unique sequences were obtained after sequencing single colonies, sorted according to affinity sorting, and full-length antibodies were constructed from antigen-binding fragments (Fab) with relatively high affinity. The binding ability and blocking function tests were performed after purification, that is, the effect of the antibody on binding between SEMG2 and CD27 was determined by the ELISA experiment.
Take B1: the “binding to SEMG2(497-509) epitope” value is given as “bind”.

B2: the “binding to SEMG2(497-509) epitope” value is “bound”.

Regarding B3, the “binding to SEMG2(497-509) epitope” value is listed as “bound”.

As for B4, the “binding to SEMG2(497-509) epitope” value was “bound”.
